According to the Immune Epitope Database (IEDB):

molecular target: HLA-B*53:01; assay: IEDB peptide-MHC binding, purified MHC/competitive/radioactivity; ≥ and ≤ were set here for values at or beyond the usual limits of such assays; details: source organism: Bordetella pertussis

Row | Sequence | IC50 [µM]
1 | FPTRTTAPG | 0.894
2 | HANHYGTRI | 52.1
3 | TAPVTSPAW | 4.36

molecular target: HLA-A*02:01; assay: as above; details: source organism: Bordetella pertussis

Row | Sequence | IC50 [µM]
4 | EGGKLRGKD | ≥ 78.1
5 | IIKDAPPGA | 15.4
6 | IIQEFAADL | 4.15
7 | TLSSAHGNV | 48.6
8 | VKLGGVYEA | 9.59

molecular target: HLA-B*57:01; assay: as above; details: source organism: Bordetella pertussis

Row | Sequence | IC50 [µM]
9 | AARVAGDNY | 32.3
10 | KATVTTVQV | 35.2
11 | RARRALRQD | 13.5
12 | RRFTHADGW | 55.9
13 | RSGARATSL | 21.9
14 | SVKVAKKLF | ≥ 70.4

molecular target: HLA-B*07:02; assay: as above; details: source organism: Bordetella pertussis

Row | Sequence | IC50 [µM]
15 | MPKAPELDL | 21
16 | RPSVNGGRI | 0.348

molecular target: HLA-B*35:01; assay: as above; details: source organism: Bordetella pertussis

Row | Sequence | IC50 [µM]
17 | GEAMVLVYY | 36.4
18 | ILAGALATY | 4.29
19 | LAGSGLFRM | 0.767
20 | MAPVMGACM | 5

molecular target: HLA-B*44:03; assay: as above; details: source organism: Bordetella pertussis

Row | Sequence | IC50 [µM]
21 | AEIAFYPKE | 0.48
22 | AQVTVAGRY | 3.25
23 | RETFCITTI | 0.214
24 | TEAQGVQVR | 19.9
